For assay [1], the target named is T1, Mdm2 (1-125) (UniProt Q00987 1-125). In words: cell-based or functional assay.
For assay [2], the target named is T2, Mdm2 joined to HaloTag (UniProt Q00987 1-491, HaloTag covalently labelled with a cell permeable fluorogenic substrate).
T2 construct: Mdm2 of the p53:Mdm2 NanoBRET System (Promega); Construct of a bought kit (Promega); source: HEK293, transiently transfected, in live cells
The assay can be described thus: FRET or BRET; nanoBRET in live HEK293 cells transfected with p53-nanoLUC and Mdm2-HaloTag; stapled peptide titrated (10 points), 0% FCS, signal after 4 hours. Conditions: one partner purified.

Assay [3] concerns the target T2, Mdm2 joined to HaloTag. The assay can be described thus: FRET or BRET; nanoBRET in live HEK293 cells transfected with p53-nanoLUC and Mdm2-HaloTag; stapled peptide titrated (10 points), 10% FCS, signal after 4 hours. The settings on record: one partner purified.
The target in assay [4] is T1, Mdm2 (1-125). In words: fluorescence polarisation; competitive fluorescence anisotropy (FA) assay on Mdm2 (1-125); Kd determined from the competition; details in the supplementary information. Conditions: both partners purified. (In general: Polarisation of emitted light reports the rotation of a fluorescent probe.)

Positions of bridges follow the written chain, without caps; N, C: chain ends. Non-standard residues stand in square brackets, D forms with d. R8 = C=CCCCCCC[C@@](C)(N)C(=O)O; S5 = C=CCCC[C@](C)(N)C(=O)O; Ahx = NCCCCCC(=O)O

For orientation: IC50 means the concentration that gives 50% inhibition. Higher therefore signals weaker potency in that assay. For orientation: Kd means the constant that tells how readily two partners part at equilibrium. Read a low Kd as higher affinity.

T1 sequence (Q00987 1-125): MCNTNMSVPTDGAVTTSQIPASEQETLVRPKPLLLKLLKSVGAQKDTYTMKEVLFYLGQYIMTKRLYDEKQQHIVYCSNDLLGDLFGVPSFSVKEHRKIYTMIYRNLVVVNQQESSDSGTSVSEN
T2 sequence (Q00987 whole entry): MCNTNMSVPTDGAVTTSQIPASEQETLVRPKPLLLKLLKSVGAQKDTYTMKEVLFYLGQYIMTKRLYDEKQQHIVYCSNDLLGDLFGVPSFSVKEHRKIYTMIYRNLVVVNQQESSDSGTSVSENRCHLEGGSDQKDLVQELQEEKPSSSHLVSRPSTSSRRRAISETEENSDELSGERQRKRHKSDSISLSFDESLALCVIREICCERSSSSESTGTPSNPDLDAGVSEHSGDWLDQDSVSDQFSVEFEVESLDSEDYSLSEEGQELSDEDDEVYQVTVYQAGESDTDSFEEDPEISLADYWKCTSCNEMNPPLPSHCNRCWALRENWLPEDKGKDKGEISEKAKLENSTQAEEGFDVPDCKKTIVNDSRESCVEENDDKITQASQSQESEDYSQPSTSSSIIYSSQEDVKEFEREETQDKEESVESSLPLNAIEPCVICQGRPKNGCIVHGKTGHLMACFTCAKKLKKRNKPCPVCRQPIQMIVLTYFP

Take Ac-KK[Ahx]TSF[R8]EYWALL[S5]ENF-NH2 (staple 7-14) [VIP-82]: in the assay with Mdm2 (1-125) [1], the “EC50 of p53 activation, T22 p53 reporter cells (β-galactosidase), 0% FCS; blocks Mdm2:p53” value turned out to be 0.8 µM and the “EC50 of p53 activation, T22 p53 reporter cells (β-galactosidase), 10% FCS; blocks Mdm2:p53” value worked out at 10 µM. In addition, the IC50 with Mdm2 joined to HaloTag [2] was determined as 3.9 ± 0.2 µM. For the same molecule, in the assay with Mdm2 joined to HaloTag [3], the IC50 was 17.5 ± 1.3 µM. This molecule also registered a Kd with Mdm2 (1-125) [4] of 24.4 ± 2.3 µM.

(Values after publication PMC5431883, “Enhancing Specific Disruption of Intracellular Protein Complexes by Hydrocarbon Stapled Peptides Using Lipid Based Delivery” (Scientific Reports, 2017).)
